B1: Sdo1p domain I-II (1-169) (domain or fragment, S. cerevisiae, UniProt Q07953 1-169, looked up)
chain: MPINQPSGQIKLTNVSLVRLKKARKRFEVACYQNKVQDYRKGIEKDLDEVLQIHQVFMNVSKGLVANKEDLQKCFGTTNVDDVIEEIMHKGEIQLSEKERQLMLNKVNNEMLTIVSAKCINPVSKKRYPPTMIHKALQELKFSPVINKPAKLQALEAIKLLVSKQIIPI
notes: Sdo1p of S. cerevisiae, domains I-II, residues 1-169; cloned into pET21b; also called domains I-II; Sdo1p-I-II; source: E. coli BL21 (DE3), purified (Ni-NTA, gel filtration); not shown: His6, C-terminal, kept
B2: uL16 (RPL10), in the 60S subunit (natural protein, S. cerevisiae (endogenous in S288C), UniProt P41805 1-221, looked up)
chain: MARRPARCYRYQKNKPYPKSRYNRAVPDSKIRIYDLGKKKATVDEFPLCVHLVSNELEQLSSEALEAARICANKYMTTVSGRDAFHLRVRVHPFHVLRINKMLSCAGADRLQQGMRGAWGKPHGLAARVDIGQIIFSVRTKDSNKDVVVEGLRRARYKFPGQQKIILSKKWGFTNLDRPEYLKKREAGEVKDDGAFVKFLSKKGSLENNIREFPEYFAAQA
notes: ribosomal protein uL16 (RPL10) of S. cerevisiae; met Sdo1p as a subunit of the purified 60S particle, not as an isolated protein; source: endogenous, part of the 60S subunit purified from S. cerevisiae S288C
B3: Sdo1p, full-length (1-250) (natural protein)
chain: MPINQPSGQIKLTNVSLVRLKKARKRFEVACYQNKVQDYRKGIEKDLDEVLQIHQVFMNVSKGLVANKEDLQKCFGTTNVDDVIEEIMHKGEIQLSEKERQLMLNKVNNEMLTIVSAKCINPVSKKRYPPTMIHKALQELKFSPVINKPAKLQALEAIKLLVSKQIIPIVRAKMKVKVAISEPSRQPELIEKISKLIASSPGESTKPELDPWTCTGLIDPVNYRDLMTLCDKKGTVQVLDMAVIDNTTHN

Assay [1] has as its target T1, Sdo1p, full-length (1-250) (S. cerevisiae, UniProt Q07953 1-250).
T1 construct: Sdo1p, the SBDS homologue of S. cerevisiae, full-length construct, residues 1-250; cloned into pET21b; also called Sdo1p-FL; FL; source: E. coli BL21 (DE3), purified (Ni-NTA, gel filtration); not shown: His6, C-terminal, kept
T1 sequence (looked up): B3 chain
The assay can be described thus: BLI; Octet RED96; Sdo1p variants (2 μg/mL) immobilised on Anti-Penta-HIS biosensors; 60S subunit 1.75-48 nmol/L in 25 mmol/L Hepes-KOH pH 7.5, 100 mmol/L KCl, 2.5 mmol/L MgCl2; association and dissociation 240 s each.

Assay [2] concerns the target Sdo1p domain I-II (1-169) (S. cerevisiae) (UniProt Q07953). The description is as above.
Assay [3] concerns the target The truncated domain I, II and II-III. Described as above.
For assay [4], the target named is B2. As to the kind of experiment: cross-linking; CX-MS: 50 pmol 60S with full-length or truncated Sdo1p at 1:20, 25 mmol/L Hepes-KOH pH 7.5, 100 mmol/L KCl, 2.5 mmol/L MgCl2; DSS or BS3, room temperature 1 h; trypsin, LC-MS/MS, pLink FDR <5%. The note with it: both partners purified.
Assay [5] concerns the target T1, Sdo1p, full-length (1-250). Described as above. The note with it: both partners purified.
Assay [6] has as its target mature 60S ribosomal subunit of S. cerevisiae (S. cerevisiae (endogenous in S288C)) (UniProt P41805). As to the kind of experiment: cryo-EM structure; 60S subunit (100 nmol/L) with 20-fold (dimers, 14 Å map) or 10-fold (monomers, 9 Å map) excess of full-length Sdo1p, 30°C 15 min, without crosslinking.

The Kd is the equilibrium constant for the complex coming apart. As usually defined, the stoichiometry N is a count of units in the complex or per binding partner.

As for “mature 60S ribosomal subunit of S. cerevisiae (from UniProt P41805 1-221) (complex)”, the equilibrium dissociation constant (Kd) in assay [1] was 18 nM; in assay [2], 15 nM; in assay [3] it was 25 to 40 nM.

B1: the binding result in assay [4] was “binds”.

Turning to B2, the binding result in assay [5] is on record as “binds”.

In assay [6], B3 showed a stoichiometry N of 1.
